Experimental data taken from US9074002B2, “PTP1B inhibitors” (Cold Spring Harbor Laboratory, priority 2009, dated 2015).
“Also recorded” adds a separate entry of the source.

Biological target: T1, endogenous PTP1B-OX (Homo sapiens, UniProt P18031)
T1 construct: endogenous in cells; host or cells: 293T cells (transfected only with the scFv intrabody)
T1 sequence (P18031 1-435): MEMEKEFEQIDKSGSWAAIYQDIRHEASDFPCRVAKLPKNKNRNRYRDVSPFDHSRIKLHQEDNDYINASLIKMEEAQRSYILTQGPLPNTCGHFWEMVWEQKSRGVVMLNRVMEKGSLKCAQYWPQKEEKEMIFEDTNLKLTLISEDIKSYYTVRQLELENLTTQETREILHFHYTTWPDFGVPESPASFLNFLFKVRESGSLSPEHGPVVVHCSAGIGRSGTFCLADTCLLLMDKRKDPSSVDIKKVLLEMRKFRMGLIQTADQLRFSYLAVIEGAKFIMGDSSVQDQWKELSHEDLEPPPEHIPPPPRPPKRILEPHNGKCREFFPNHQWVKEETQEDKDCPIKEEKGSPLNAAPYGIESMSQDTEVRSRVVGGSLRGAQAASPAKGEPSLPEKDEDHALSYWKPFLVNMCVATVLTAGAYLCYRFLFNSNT
Experiment: Intrabody interaction in 293T cells treated with H2O2 (Ni-NTA pull down / anti-PTP1B immunoprecipitation)
Format: cell-based
Settings: 1 mM H2O2 5 minutes, FIGS. 11, 12
Summary of the method: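 293T cells transiently expressing HA-detected scFv intrabodies, serum-starved 16 h, then 1 mM H2O2 for 5 min or 20 mM NAC for 1 h at 37 °C (NAC lysates with 2 mM TCEP). Complexes from 1 mg lysate captured by Ni-NTA pull-down or anti-PTP1B (FG6) IP; PTP1B and intrabody detected by immunoblot.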

Row | Molecule | binding of intrabody to endogenous PTP1B-OX
1 | scFv45: conformation-sensor scFv binding PTP1B-OX, SEQ ID NO: 26 and 78; expressed as intrabody (protein) scFv: MKKTAIAIAVALAGFATVAQAALTQPSSVSANPGGTVKITCSGSSSAYGYGWYQQKSPGSAPVTVIYNNNKRPSNIPSRFSGSKSGSTGTLTITGVQAEDEAVYFCGSEDSSTDAIFGAGTTLTVLGQSSRSSTVTLDESGGGLQAPGGALSLVCKASGFTFSSYDMGWIRQAPGKGLEYVAGITDNGRYASYGSAVDGRATISRDNGQSSVRLQLNNLRAEDTGTYYCARDDGSGWTGNSIDAWGHGTEVIVSSTSGQAGQHHHHHHGAYPYDVPDYAS | interaction between scFv45 and PTP1B-OX was observed; also recorded: co-pulldown of PTP1B-OX in the presence of H2O2
2 | scFv57: scFv binding PTP1B-OX, SEQ ID NO: 27 and 90 (protein) scFv: MKKTAIAIAVALAGFATVAQAALTQPSSVSANPGAFNKITCSGSSSAYGYGWNQQKSPGSAPVTVIYNNNKRPSNIPSRFSGSKSGSTGTLTITGDQDEDEDFYFCGSEYSSTDAIFGAGTTLTVLGQSSRSSTVTLDESGGGLQAPGGALSLVCKASGFTFSSYDMGWIPQAPGKGLEYVAGITDNGIYASYGSAVDGRATISRDNRQSSVKLQLNNLKADDTGTYYCARDDGSGWTGNSIDAWGHGTEVIVSSTSGQAGQHHHHHHGAYPYDVPDYAS | bound to endogenous PTP1B-OX strongly
